Among the targets are CD4 Dbl (mouse) (UniProt P06332); CD4 K452A (mouse) (UniProt P06332); CD4 R426A (mouse) (UniProt P06332); CD4 R449A (mouse) (UniProt P06332); CD4 WT (mouse) (UniProt P06332).
Holding throughout (test): co-IP

Sequence of Lck (P06240 whole entry): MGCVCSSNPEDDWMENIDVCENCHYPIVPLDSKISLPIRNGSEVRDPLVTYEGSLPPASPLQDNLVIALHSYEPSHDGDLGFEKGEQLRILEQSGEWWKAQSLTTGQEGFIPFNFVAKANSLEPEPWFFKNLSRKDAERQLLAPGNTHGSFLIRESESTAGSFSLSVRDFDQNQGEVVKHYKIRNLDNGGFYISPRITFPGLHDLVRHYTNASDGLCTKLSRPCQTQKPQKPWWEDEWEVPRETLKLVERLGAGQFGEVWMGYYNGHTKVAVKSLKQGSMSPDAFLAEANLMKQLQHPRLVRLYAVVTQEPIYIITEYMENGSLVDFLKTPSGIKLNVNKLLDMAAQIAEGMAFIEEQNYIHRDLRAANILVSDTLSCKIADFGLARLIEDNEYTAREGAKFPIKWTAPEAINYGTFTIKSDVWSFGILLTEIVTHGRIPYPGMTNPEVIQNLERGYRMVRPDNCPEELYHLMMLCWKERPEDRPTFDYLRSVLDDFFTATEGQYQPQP

Take “Lck (from UniProt P06240 1-509) (enzyme)”: the total AUC of the raw Lck signal co-IP'd with CD4 in the assay with CD4 Dbl (mouse) turned out to be 2160; with CD4 K452A (mouse), 2380; with CD4 R426A (mouse), 2920; with CD4 R449A (mouse) it was 2640; in the assay with CD4 WT (mouse), 2630.

Source of the values: publication doi:10.1101/2021.04.29.441928.
